Data: the nanobody polyreactivity screen of Harvey et al. (2022)

Test: yeast display, Sf9 membrane polyspecificity reagent, FACS + sequencing; frameworks hold sequencing errors
Method in brief: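 Using colony PCR, genes from sorted yeast display clones were amplified, then sequenced on MiSeq at 2 × 250 and filtered by CDR length. The clones had been stained with 10% biotinylated, detergent-solubilized Sf9 membrane reagent for 1 hour at 4 °C and sorted by FACS into low and high (top ~1%) gates on anti-HA and streptavidin fluorescence. Polyreactivity labels come from the gate of origin.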

| Sequence | polyreactivity (PSR sort gate) |
| --- | --- |
| QVQLVESGGGLVQAGGSLRLICAASGRIFGIYAMGWYRQAPGKERELVASITGSSGSTNYADSVKGRFTISRDNAKNTVYLQMNSLKPEDTAVYYCAAERGYHGGGSGLYDYWGQGTQVTVSS | low polyreactivity |
| QVQLVESGGGLVQAGGSLRLSCAASGRIFNKNAMGWYRQAPGKERELVAAITYSGGSTYYADSVKGRFTISRDNAKNTVYLQMNSLKPEDTAVYYCARDLYYVYSFAPYRYEYWGQGTQLTVSS | low polyreactivity |
| QVQLQESGGGQVQAGGSLRLSSAASGYIFAYNYMGWYRKAPGKERELVAAIVHGSTTNYADSVKGRFTISRDNAKNTVYLHMNNLKPEDTAVYYCAVDAERYYLHSYWGQGTQVTVSS | high polyreactivity |
| QVQLVESRGGLVQAGGSLRLSCAASGRTRFYAMGRYIQAPGKERELVAVINASGDSTYYADSVKGRFTISRDNAKITVYLQMNSLKPEDTAVYYCAGDNRGEYDYWGQGTQVTVSS | low polyreactivity |
| QVQLVESGGGLVQAGGSLRLSCAASGSTFRYNAMGWYRQAPGKERELVAAINRGGGTDYADSVKGRFTISRDNAKNTVYLQMNSLKPEDTAVYYCAKQFVSYNRWLAYGYWGQGTQVTVSS | low polyreactivity |
| QVQHVESGGGLVQAGGSLRLSCAASGSTFYIYAMGWYRQAPGKERELVATITDGGSTNFADSVKGRFTISRDNAKNTVYLQMNSLKPEDTAVYYCNANVWTGYDYWGLGTQVTVSS | low polyreactivity |
| QVQHVESGGGLVQAGGSLRLTCAASGRIYASNSKGWYRQETGKERELFATSRVGGGSTYYADSVKGRFTISRDNAKNTVYLQRNSLKQEDTAVYYWAASFRDDFPQRLDFWGQGTQVTVSS | low polyreactivity |
| QVQLVESGGGLVQAGGSLRLSCAASGFIFYGNTMGWYRQAPGKERELVAAISGSTGGTYYADSVKGRFTISRDNAKNTVYLQMNSLKPEDTAVYYCAAVVPWYASYSRYYYWGQGTQVTVSS | high polyreactivity |
| QVQLVESGGGLVQAGGSLRLSCAASGRIFYTYAMGRYRQAPGKERELVAVISSGGSTNYADSVKGRFTISRDTAKNNVYLQMNSLKPEDTAVYYCNADTGAADYFDFDYWGQGTQVTVSS | low polyreactivity |
| QVQLVESGGGLVQAGGSLRLSCAASGFTFASNAMGWYRQAPGKERELVAGISRTGTTTYYADSVKGRFTISRDNAKNTVYLQMNSLKPEDTAVYYCNKAFSHQIYATGMGYWGQGTQVTVSS | high polyreactivity |
| QVQLVESGVGLVQAGGILRLSCAASGSIFAVNAMGWYRQAPGKERELFAAISKRGGSTYYADSVKGRFTISRDNAKNTVYLQMNSLKPEDTAVYYCAARILVTYHRDYYYWGLGTQVTVSS | high polyreactivity |
| QVQLVQSGGGLVQAGGSLRVSCAPSGRIYAMGWSRQAPGKERELVARITKSGTSTYYADSVKGRFTISRDNAKNTVYLQMNSMKPEDTAVYYCATATFYRSVLYGYWGQGTQVTVSS | high polyreactivity |
| QVHLVESGVGLVQAGGSLRLSCAASGRIFFANPIGWYRQAPGKERELVAANSRGGRTNYADSVKGRFTISRDNAKNTVYLQMNSLNPEDTAVYYCAAVRLSHAPSYYLYGMDYWGQGTQVTVSS | low polyreactivity |
| QVQLVESGGGLVQAGGSLRLSWAASGSIFQVYAMGWYRQAPGKEREFVAAISYSGGGTYYADSVKGRFTISRDNAKNTVYLQMNSLKPEDTAVYYCAADVSGWEYDYWGQGTQVTVSS | low polyreactivity |
| QDQLVESGGGLVQAGGSLRLSCAASGRIFYTNGMGWYRQAPGKERELVAAITYSGGNTFYADSVKGRFTISRDNAKNTVYLQMNSLKPEDTAVYYCAATFTYLGYWYDYWGQGTQVTVSS | low polyreactivity |
| QVQLVESGGGIVQAGGSLSLSCAASGYNFTQNAMGGYRQAPGKERELVASITSGGSTDYADSVKGRFTISRDNAKNTVYLQMNSLKPEDTAVYYCAAEFHFWGYLYDYWGQGTQVTVSS | low polyreactivity |
| QVQLVESGGGLVQAGGSLRLSCAASGFTFGRYAMGWYRQAPGKERELVAAITWSGGTTTYYADSVKGRFTISRDNAKNTVYLQMNSLKPEDTAVYYSAADLYFYIYSYNYWGQGTQVTVSS | low polyreactivity |
| QVQLVESGGGLVQAGGSRLSCAASGLIFISYTMGWYRPAPGKERELVAAIDSSGGNTYYADSVKGRFTISRDNAKNTVYLQMNSLKPEDTAVYYCAKDVGHGAGNLMGYWGQGTQVTVSS | low polyreactivity |
| QVQLVESGGGLVQAGGSLRLSCAASGLIIRNYAMGWYRPAPGKERELVAAISYNGGSTYYADSVKGRFTISRDNAKNTVYLQMNSLKPEDTAVYYCAAYYGVGYRRYYYWGQGTQVTVSS | high polyreactivity |
| QVQLVESGGCLVQAGGSLRLSCAASGRTFYAYAMGWYRQAPGKERELVAAISWRGGDTYYADSVKGRFTISRDNAKNTVYLQMNSLKPEETGVYYCAKYLSRQSGDGEYDYWGQGTQVTVSS | low polyreactivity |
| QVQLVESGGGLVQAGGSLRLSCAASGSILTHYAMGWYRQAPGKERELVAGIPWSGTSTYYADSVKGRFTISRDNAKNTVYLQMNSLKPEDTAVYYCNARHYGWGFAWKYDYWGQGTQVTVSS | low polyreactivity |
| QVQLVESGGGLVQAGGSLRLSCAASGRTFCVNAMGWSRQAPGKERELVAAITGGGSTYYADSVKGRFTISRDNAKNTVYLQMNSLKPEDTAVYYCNADRRRRSGGFAGWHFQRNDYWGQGTQVTVSS | low polyreactivity |

| Sequence | polyreactivity (PSR sort gate) |
| --- | --- |
| QDQLVESGGGLVQAGGSLSLSCAASGLIFSDNAMGWYRQAPGKERELVATITFSGSTNYADSVKGRFTISRDNAKNTVYLQMNSLKPEDTAVFFCAADAGGGPFEYWGQGTHVTVSS | low polyreactivity |
| QVQLVESGGGLVQAGGSLRLSCAASGFTFETYAMGWNRQAPGKERELVASISRSGGRTYYADSVKGRFTISRDNAKNTVYLQMNSLKPDDTAVYYCAAGYYVRYGRRPTGYGGYDYWGQGTQVTVSS | high polyreactivity |
| QVQLVESGGGLVQAGGSLRLSCAASGRIFKRNAMGWYRQAPGKERELVAAISSRVGRTYYADSVKGRFTISRDNAKNTVYLQMNSLKPEDTAVYYCAADTYTYYDYDYWGQGTQVTVSS | high polyreactivity |
| QVQLVESGGGLVQAGGSLLLSCAASGFTFGFNAMGWYRQAPGQERELGAAISRGGSTNYADSVKGRFTISRDNAKNTVYVQMNSLKPEDTAVYDCAADFITYVFRFYYWGQGTLVTVSS | low polyreactivity |
| QVQLVESGGGLVQAGGSLRLSCAASGRTFYPYAMGWYRKAPGKERELVAAITSDGSTNYADSVKGRFTISRDNAKNTVYLQMNSLKPEDTAVYYCATAGYSWVSYDYWGQGTQVTVSS | low polyreactivity |
| QVQLVESGGGLVQAGGSLRLSCAASSIFRTYAMGWYRQAPGKERELVAAITWSGASTNYADSVKGRFTISRDNAKNTVYLQMNSLKPEDTAVYYCNADWRYYPSFKYYYWGQGTQVTVSS | high polyreactivity |
| QVQLVESGGGLVQAGGSLRLSCAASGRTFGVNAMGWYRQAPGKERELVAAIDSSGGSTYYADSVKGRFTISRDNAKNTVYLQMNSLKPEDTAVYYCAGPYRPDYDYWGQGTQVTVSS | high polyreactivity |
| QVQHVESGGGLVQAGGSLRLSCAASGRIFHYYAMGWYRQAPGKERELVAAITFRGGNTYADSVKGRFTISRDNAKNTVYLQMNSLKPEDTAFYYCADSRLSGYYSRYGYWGQGTQVTVSS | high polyreactivity |
| QVQLVESGGGLVLAGGSLRLSCAASGSILGTYAMGWYRQAPGKERELVARISRGGSTNYADSVKGRFTISRDNAKNTVYLQMNSLKPEDTAVYYCAKRLYLPESWRYYYWGQGTQVTVSS | high polyreactivity |
| QVQLVESGGGLVQAGGSLRLSCASSGSTIGRNAMGWYRQAPGKERELVASISSGGSTYYADSVKGRFTISRDNAKNTVYLQMESLKPEDTAVYYCARRAYQNWYNYWGQGTQVTVAS | high polyreactivity |
| QVQLVESGGGLVQAGGSLRLSCAASGSTFTGYALGWYRQAPGKEREFVATITKRGGRTYYADSVKGRFTISRDNAKNTVYLQMHSLKPEDTAVYYCARDQGKLVVPYDYWGQGTQVTVSS | high polyreactivity |
| QVQLVESGGGLVQAGGSLRLSCAASGRIFSFYVMGWYRQAPGKERELVAAISLSGGSTYYADSVKGRFTISRDNAMNTVYLQMNSLKPEDTAVYYCNAVLYARQRDRWARYDYWGQGTQVTVSS | high polyreactivity |
| QVQLVESGGGLVQAGGSLRLSCAASGRIFRYYAMGWYRQATGKERELVAAISRSGGSTYYADSVKGRFTISRDNAKNTVYLQMNSLKPEDTAVYYCNAQWRSTDPYPPGYDYWGQGTQVTVSS | high polyreactivity |
| QVQLVQSGGGLVQAGGSLRLSCAASGSTFSGYTMGWYRQAPGKEREFVAAISSRGGSTYYADSVKGRFTISRDNAKNTVYLQMNSLKPEDTAVYYCAAKVWARVDGRQFRMEYWGQGTQVTVSS | high polyreactivity |
| QVQLVESGGGVVQAGGSLRLSCAASGFIFYYNTMGWYRQAPGKERELVASMTWSGDTTYYADSVKGRFTISRDNAKNTVYLQMNSLTPEDTAVYYCAAVHYDPYRRYDYWGQGTQVTVSS | low polyreactivity |
| QVQLVESGGGLVQAGGSLRLSCAASGRTFFPYAMGWYRQAPGKEREFVAAITWSGGSTTYADSVKGRFTISRDNAKNTVYLQMTSLKPEDTAVYYCNDGRRRSYSYDYWGQGTQVTVSS | low polyreactivity |
| QVQLVESWGGLVQAGGSLRLSCAASGFTFTSYAMGCYRQAPGKEREFVAGITKGGGNTYYSDSVKGRFTISRDNAKNTVYLHMNSLKPEDTEVYYCAADRSSFYLSHGTVDCYDYWGQATQVTVSS | low polyreactivity |
| QVQHVDSGAGLVQAGGSLRLRCSASGLILKDYAMGWSIQPPGKERELVAAISTSAGTTYYADSVKGRFTISRDNAKNTVYLQMKSQKPEETAVYYCAAGYLPYYIRYYHPVTVDYDYWGQGTQVTVSS | low polyreactivity |
| QVQLVESGGGIVQAGGSLRLSCAASGFTFSSYAMGWYRQAPGKERELVAAISSGGGSTYYADSVKGRFTISRDNAKNTVYLQMNSLKPEDTAVYYCAASHYYSNGYWGQGTQVTVSS | high polyreactivity |
| HVQLVESGGGLVQAGGSLRLSCAASGSIFDTYAMGWYRQAPGKERELVAAINFSDGDTYYADSVKGRFTSSRDNSKNTVYLQLNSLKPEDTAVYDCAAEVWDPPEYYDEYDYWGQGTQVTVSS | low polyreactivity |
| QVQLVESGGGLVQARGSLRLSCAASGRIFNTYAMGRYIQAPGKERELVAAITSSGGSTYYADSVKGRFTISRDNAKNTVYFQMNSLKPEDTAVYYCNAGSLHRRYYYEGDYWGQGTQVTVSS | high polyreactivity |
